Experimental data: patent publication EP4803149A2 (Lyvgen Biopharma Holdings Limited, dated 2026)
Substitutions are numbered along the chain they refer to.

B1: Ly2278 (bispecific antibody)
chain 1: QVQLQQSGAELVRPGSSVKISCKASGYAFSSYWMNWVKQRPGQGLEWIGQIWPGDGDTNYNGKFKGKATLTADESSSTAYMQLSSLASEDSAVYFCARRETTTVGRYYYAMDYWGQGTTVTVSSASTKGPSVFPLAPSSKSTSGGTAALGCLVKDYFPEPVTVSWNSGALTSGVHTFPAVLQSSGLYSLSSVVTVPSSSLGTQTYICNVNHKPSNTKVDKKVEPKSCGGGGSGGGGSGGGGSGGGGSEVQLVESGGGLVQPGGSLRLSCAASGFTFSTYAMNWVRQAPGKGLEWVGRIRSKYNNYATYYADSVKGRFTISRDDSKNSLYLQMNSLKTEDTAVYYCVRHGNFGNSYVSWFAYWGQGTLVTVSSGGGGSDKTHTCPPCPAPEAAGPSVFLFPPKPKDTLMISRTPEVTCVVVDVSHEDPEVKFNWYVDGVEVHNAKTKPREEQYNSTYRVVSVLTVLHQDWLNGKEYKCKVSNKALPAPIEKTISKAKGQPREPQVYTLPPSREEMTKNQVSLWCLVKGFYPSDIAVEWESNGQPENNYKTTPPVLDSDGSFFLYSKLTVDKSRWQQGNVFSCSVMHEALHNHYTQKSLSLSPG
chain 2: QVQLQQSGAELVRPGSSVKISCKASGYAFSSYWMNWVKQRPGQGLEWIGQIWPGDGDTNYNGKFKGKATLTADESSSTAYMQLSSLASEDSAVYFCARRETTTVGRYYYAMDYWGQGTTVTVSSASTKGPSVFPLAPSSKSTSGGTAALGCLVKDYFPEPVTVSWNSGALTSGVHTFPAVLQSSGLYSLSSVVTVPSSSLGTQTYICNVNHKPSNTKVDKKVEPKSCGGGGSGGGGSGGGGSGGGGSQAVVTQEPSLTVSPGGTVTLTCRSSTGAVTTSNYANWVQQKPGQAPRGLIGGTNKRAPWTPARFSGSLLGGKAALTITGAQAEDEADYYCALWYSNLWVFGGGTKLTVLGGGGSDKTHTCPPCPAPEAAGPSVFLFPPKPKDTLMISRTPEVTCVVVDVSHEDPEVKFNWYVDGVEVHNAKTKPREEQYNSTYRVVSVLTVLHQDWLNGKEYKCKVSNKALPAPIEKTISKAKGQPREPQVYTLPPSREEMTKNQVSLSCAVKGFYPSDIAVEWESNGQPENNYKTTPPVLDSDGSFFLVSKLTVDKSRWQQGNVFSCSVMHEALHNRFTQKSLSLSPG
chain 3: not shown
notes: CD19/CD3; central CD3 Fv
B2: Ly1966 (multi-specific antibody)
chain 1: QVQLQQSGAELVRPGSSVKISCKASGYAFSSYWMNWVKQRPGQGLEWIGQIWPGDGDTNYNGKFKGKATLTADESSSTAYMQLSSLASEDSAVYFCARRETTTVGRYYYAMDYWGQGTTVTVSSASTKGPSVFPLAPSSKSTSGGTAALGCLVKDYFPEPVTVSWNSGALTSGVHTFPAVLQSSGLYSLSSVVTVPSSSLGTQTYICNVNHKPSNTKVDKKVEPKSCGGGGSGGGGSGGGGSGGGGSEVQLVESGGGLVQPGGSLRLSCAASGFTFSTYAMNWVRQAPGKGLEWVGRIRSKYNNYATYYADSVKGRFTISRDDSKNSLYLQMNSLKTEDTAVYYCVRHGNFGNSYVSWFAYWGQGTLVTVSSGGGGSDKTHTCPPCPAPEAAGPSVFLFPPKPKDTLMISRTPEVTCVVVDVSHEDPEVKFNWYVDGVEVHNAKTKPREEQYNSTYRVVSVLTVLHQDWLNGKEYKCKVSNKALPAPIEKTISKAKGQPREPQVYTLPPSREEMTKNQVSLWCLVKGFYPSDIAVEWESNGQPENNYKTTPPVLDSDGSFFLYSKLTVDKSRWQQGNVFSCSVMHEALHNHYTQKSLSLSPGGGGGSGGGGSGGGGSGGGGSQVQLVQSGAEVKKPGASVKVSCKASGYTFAGFEMHWVRQAPGQGLEWMGAIDPKTGGTDYNQKFKDRVTMTRDTSISTAYMELSRLRSDDTAVYYCARDLGYFDVWGQGTLVTVSS
chain 2: QVQLQQSGAELVRPGSSVKISCKASGYAFSSYWMNWVKQRPGQGLEWIGQIWPGDGDTNYNGKFKGKATLTADESSSTAYMQLSSLASEDSAVYFCARRETTTVGRYYYAMDYWGQGTTVTVSSASTKGPSVFPLAPSSKSTSGGTAALGCLVKDYFPEPVTVSWNSGALTSGVHTFPAVLQSSGLYSLSSVVTVPSSSLGTQTYICNVNHKPSNTKVDKKVEPKSCGGGGSGGGGSGGGGSGGGGSQAVVTQEPSLTVSPGGTVTLTCRSSTGAVTTSNYANWVQQKPGQAPRGLIGGTNKRAPWTPARFSGSLLGGKAALTITGAQAEDEADYYCALWYSNLWVFGGGTKLTVLGGGGSDKTHTCPPCPAPEAAGPSVFLFPPKPKDTLMISRTPEVTCVVVDVSHEDPEVKFNWYVDGVEVHNAKTKPREEQYNSTYRVVSVLTVLHQDWLNGKEYKCKVSNKALPAPIEKTISKAKGQPREPQVYTLPPSREEMTKNQVSLSCAVKGFYPSDIAVEWESNGQPENNYKTTPPVLDSDGSFFLVSKLTVDKSRWQQGNVFSCSVMHEALHNRFTQKSLSLSPGGGGGSGGGGSGGGGSGGGGSDIQMTQSPSSLSASVGDRVTITCRASQDIRSNLNWYQQKPGGAVKLLIYYTSRLHSGVPSRFSGSGSGTDYTLTISSLQPEDFATYFCQQSEKLPRTFGGGTKVEIR
chain 3: not shown
notes: CD19/CD3/CD137
B3: Ly1967 (multi-specific antibody)
chain 1: B2 chain 1
chain 2: B2 chain 2 with R575H, F576Y
chain 3: not shown
notes: CD19/CD3/CD137 multi-specific

Target: CD3 (human)
Experiment: ELISA or FCM (as in Example 2)

Compared with B1, B2 is 4.2-fold lower in EC50: 1.46 µg/mL for the first, 0.348 µg/mL for the second.

Work on B3 yielded an EC50 of 1.56 µg/mL.
